Source: IntAct's records for PubMed 20223215

B1: Low-density lipoprotein receptor-related protein 8 (Homo sapiens), Q14114 (parent)
chain: MGLPEPGPLRLLALLLLLLLLLLLQLQHLAAAAADPLLGGQGPAKDCEKDQFQCRNERCIPSVWRCDEDDDCLDHSDEDDCPKKTCADSDFTCDNGHCIHERWKCDGEEECPDGSDESEATCTKQVCPAEKLSCGPTSHKCVPASWRCDGEKDCEGGADEAGCATLCAPHEFQCGNRSCLAAVFVCDGDDDCGDGSDERGCADPACGPREFRCGGDGGGACIPERWVCDRQFDCEDRSDEAAELCGRPGPGATSAPAACATASQFACRSGECVHLGWRCDGDRDCKDKSDEADCPLGTCRGDEFQCGDGTCVLAIKHCNQEQDCPDGSDEAGCLQGLNECLHNNGGCSHICTDLKIGFECTCPAGFQLLDQKTCGDIDECKDPDACSQICVNYKGYFKCECYPGYEMDLLTKNCKAAAGKSPSLIFTNRHEVRRIDLVKRNYSRLIPMLKNVVALDVEVATNRIYWCDLSYRKIYSAYMDKASDPKEQEVLIDEQLHSPEGLAVDWVHKHIYWTDSGNKTISVATVDGGRRRTLFSRNLSEPRAIAVDPLRGFMYWSDWGDQAKIEKSGLNGVDRQTLVSDNIEWPNGITLDLLSQRLYWVDSKLHQLSSIDFSGGNRKTLISSTDFLSHPFGIAVFEDKVFWTDLENEAIFSANRLNGLEISILAENLNNPHDIVIFHELKQPRAPDACELSVQPNGGCEYLCLPAPQISSHSPKYTCACPDTMWLGPDMKRCYRAPQSTSTTTLASTMTRTVPATTRAPGTTVHRSTYQNHSTETPSLTAAVPSSVSVPRAPSISPSTLSPATSNHSQHYANEDSKMGSTVTAAVIGIIVPIVVIALLCMSGYLIWRNWKRKNTKSMNFDNPVYRKTTEEEDEDELHIGRTAQIGHVYPAAISSFDRPLWAEPCLGETREPEDPAPALKELFVLPGEPRSQLHQLPKNPLSELPVVKSKRVALSLEDDGLP

Variants of: B1
Details: with reln_mouse Reln

| Variant | effect of a mutation on the interaction |
| --- | --- |
| V63A | decreasing interaction |
| W64H | disrupting interaction |
| D50A | decreasing interaction |
| D69N | disrupting interaction |
| P61A | disrupting interaction |
